# Results published in IntAct's records for PubMed 22314232.
# B1: Calnexin (Homo sapiens), P27824 (parent)
# chain: MEGKWLLCMLLVLGTAIVEAHDGHDDDVIDIEDDLDDVIEEVEDSKPDTTAPPSSPKVTYKAPVPTGEVYFADSFDRGTLSGWILSKAKKDDTDDEIAKYDGKWEVEEMKESKLPGDKGLVLMSRAKHHAISAKLNKPFLFDTKPLIVQYEVNFQNGIECGGAYVKLLSKTPELNLDQFHDKTPYTIMFGPDKCGEDYKLHFIFRHKNPKTGIYEEKHAKRPDADLKTYFTDKKTHLYTLILNPDNSFEILVDQSVVNSGNLLNDMTPPVNPSREIEDPEDRKPEDWDERPKIPDPEAVKPDDWDEDAPAKIPDEEATKPEGWLDDEPEYVPDPDAEKPEDWDEDMDGEWEAPQIANPRCESAPGCGVWQRPVIDNPNYKGKWKPPMIDNPSYQGIWKPRKIPNPDFFEDLEPFRMTPFSAIGLELWSMTSDIFFDNFIICADRRIVDDWANDGWGLKKAADGAAEPGVVGQMIEAAEERPWLWVVYILTVALPVFLVILFCCSGKKQTSGMEYKKTDAPQPDVKEEEEEKEEEKDKGDEEEEGEEKLEEKQKSDAEEDGGTVSQEEEDRKPKAEEDEILNRSPRNRKPRRE
# Variants of: B1
# Conditions: with SEC61A1, P61619
row,effect of a mutation on the interaction,Variant
1,disrupting interaction,P494L

# Variants of: B1
# Conditions: with rl12_human RPL12, P30050
row,effect of a mutation on the interaction,Variant
1,disrupting interaction,P494L
